Test results from IntAct's records for PubMed 10097141.

B1: Polycystin-2 (Homo sapiens), Q13563 (parent)
chain: MVNSSRVQPQQPGDAKRPPAPRAPDPGRLMAGCAAVGASLAAPGGLCEQRGLEIEMQRIRQAAARDPPAGAAASPSPPLSSCSRQAWSRDNPGFEAEEEEEEVEGEEGGMVVEMDVEWRPGSRRSAASSAVSSVGARSRGLGGYHGAGHPSGRRRRREDQGPPCPSPVGGGDPLHRHLPLEGQPPRVAWAERLVRGLRGLWGTRLMEESSTNREKYLKSVLRELVTYLLFLIVLCILTYGMMSSNVYYYTRMMSQLFLDTPVSKTEKTNFKTLSSMEDFWKFTEGSLLDGLYWKMQPSNQTEADNRSFIFYENLLLGVPRIRQLRVRNGSCSIPQDLRDEIKECYDVYSVSSEDRAPFGPRNGTAWIYTSEKDLNGSSHWGIIATYSGAGYYLDLSRTREETAAQVASLKKNVWLDRGTRATFIDFSVYNANINLFCVVRLLVEFPATGGVIPSWQFQPLKLIRYVTTFDFFLAACEIIFCFFIFYYVVEEILEIRIHKLHYFRSFWNCLDVVIVVLSVVAIGINIYRTSNVEVLLQFLEDQNTFPNFEHLAYWQIQFNNIAAVTVFFVWIKLFKFINFNRTMSQLSTTMSRCAKDLFGFAIMFFIIFLAYAQLAYLVFGTQVDDFSTFQECIFTQFRIILGDINFAEIEEANRVLGPIYFTTFVFFMFFILLNMFLAIINDTYSEVKSDLAQQKAEMELSDLIRKGYHKALVKLKLKKNTVDDISESLRQGGGKLNFDELRQDLKGKGHTDAEIEAIFTKYDQDGDQELTEHEHQQMRDDLEKEREDLDLDHSSLPRPMSSRSFPRSLDDSEEDDDEDSGHSSRRRGSISSGVSYEEFQVLVRRVDRMEHSIGSIVSKIDAVIVKLEIMERAKLKRREVLGRLLDGVAEDERLGRDSEIHREQMERLVREELERWESDDAASQISHGLGTPVGLNGQPRPRSSRPSSSQSTEGMEGAGGNGSSNVHV

Variants of: B1
Conditions: with TRPC1, P48995-2
Chain of TRPC1, P48995-2 (P48995 other isoform, or with tags, fused parts or gaps): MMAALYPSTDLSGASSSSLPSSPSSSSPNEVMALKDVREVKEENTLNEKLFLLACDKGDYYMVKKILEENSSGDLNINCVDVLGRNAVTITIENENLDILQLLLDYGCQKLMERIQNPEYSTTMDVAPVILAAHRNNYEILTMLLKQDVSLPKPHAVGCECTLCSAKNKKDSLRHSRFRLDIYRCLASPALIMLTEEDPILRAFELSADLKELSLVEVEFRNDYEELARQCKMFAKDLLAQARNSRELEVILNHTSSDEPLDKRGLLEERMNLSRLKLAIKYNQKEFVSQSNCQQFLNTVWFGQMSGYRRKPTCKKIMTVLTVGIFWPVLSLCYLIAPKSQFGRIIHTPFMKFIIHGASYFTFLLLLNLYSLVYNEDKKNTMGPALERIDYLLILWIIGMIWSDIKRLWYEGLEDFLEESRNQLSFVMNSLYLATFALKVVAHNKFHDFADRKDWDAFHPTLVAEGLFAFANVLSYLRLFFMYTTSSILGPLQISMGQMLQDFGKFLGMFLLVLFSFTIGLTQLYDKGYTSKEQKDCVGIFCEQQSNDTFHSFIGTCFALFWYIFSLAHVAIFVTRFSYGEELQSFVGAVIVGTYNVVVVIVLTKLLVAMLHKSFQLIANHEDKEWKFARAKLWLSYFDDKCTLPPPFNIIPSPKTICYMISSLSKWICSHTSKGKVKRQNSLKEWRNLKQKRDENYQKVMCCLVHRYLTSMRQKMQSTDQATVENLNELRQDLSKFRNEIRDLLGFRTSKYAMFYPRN

effect of a mutation on the interaction | Variant
disrupting interaction | D886A

Variants of: B1
Conditions: with pkd1_human PKD1, P98161
Chain of pkd1_human PKD1, P98161 (P98161 whole entry, looked up): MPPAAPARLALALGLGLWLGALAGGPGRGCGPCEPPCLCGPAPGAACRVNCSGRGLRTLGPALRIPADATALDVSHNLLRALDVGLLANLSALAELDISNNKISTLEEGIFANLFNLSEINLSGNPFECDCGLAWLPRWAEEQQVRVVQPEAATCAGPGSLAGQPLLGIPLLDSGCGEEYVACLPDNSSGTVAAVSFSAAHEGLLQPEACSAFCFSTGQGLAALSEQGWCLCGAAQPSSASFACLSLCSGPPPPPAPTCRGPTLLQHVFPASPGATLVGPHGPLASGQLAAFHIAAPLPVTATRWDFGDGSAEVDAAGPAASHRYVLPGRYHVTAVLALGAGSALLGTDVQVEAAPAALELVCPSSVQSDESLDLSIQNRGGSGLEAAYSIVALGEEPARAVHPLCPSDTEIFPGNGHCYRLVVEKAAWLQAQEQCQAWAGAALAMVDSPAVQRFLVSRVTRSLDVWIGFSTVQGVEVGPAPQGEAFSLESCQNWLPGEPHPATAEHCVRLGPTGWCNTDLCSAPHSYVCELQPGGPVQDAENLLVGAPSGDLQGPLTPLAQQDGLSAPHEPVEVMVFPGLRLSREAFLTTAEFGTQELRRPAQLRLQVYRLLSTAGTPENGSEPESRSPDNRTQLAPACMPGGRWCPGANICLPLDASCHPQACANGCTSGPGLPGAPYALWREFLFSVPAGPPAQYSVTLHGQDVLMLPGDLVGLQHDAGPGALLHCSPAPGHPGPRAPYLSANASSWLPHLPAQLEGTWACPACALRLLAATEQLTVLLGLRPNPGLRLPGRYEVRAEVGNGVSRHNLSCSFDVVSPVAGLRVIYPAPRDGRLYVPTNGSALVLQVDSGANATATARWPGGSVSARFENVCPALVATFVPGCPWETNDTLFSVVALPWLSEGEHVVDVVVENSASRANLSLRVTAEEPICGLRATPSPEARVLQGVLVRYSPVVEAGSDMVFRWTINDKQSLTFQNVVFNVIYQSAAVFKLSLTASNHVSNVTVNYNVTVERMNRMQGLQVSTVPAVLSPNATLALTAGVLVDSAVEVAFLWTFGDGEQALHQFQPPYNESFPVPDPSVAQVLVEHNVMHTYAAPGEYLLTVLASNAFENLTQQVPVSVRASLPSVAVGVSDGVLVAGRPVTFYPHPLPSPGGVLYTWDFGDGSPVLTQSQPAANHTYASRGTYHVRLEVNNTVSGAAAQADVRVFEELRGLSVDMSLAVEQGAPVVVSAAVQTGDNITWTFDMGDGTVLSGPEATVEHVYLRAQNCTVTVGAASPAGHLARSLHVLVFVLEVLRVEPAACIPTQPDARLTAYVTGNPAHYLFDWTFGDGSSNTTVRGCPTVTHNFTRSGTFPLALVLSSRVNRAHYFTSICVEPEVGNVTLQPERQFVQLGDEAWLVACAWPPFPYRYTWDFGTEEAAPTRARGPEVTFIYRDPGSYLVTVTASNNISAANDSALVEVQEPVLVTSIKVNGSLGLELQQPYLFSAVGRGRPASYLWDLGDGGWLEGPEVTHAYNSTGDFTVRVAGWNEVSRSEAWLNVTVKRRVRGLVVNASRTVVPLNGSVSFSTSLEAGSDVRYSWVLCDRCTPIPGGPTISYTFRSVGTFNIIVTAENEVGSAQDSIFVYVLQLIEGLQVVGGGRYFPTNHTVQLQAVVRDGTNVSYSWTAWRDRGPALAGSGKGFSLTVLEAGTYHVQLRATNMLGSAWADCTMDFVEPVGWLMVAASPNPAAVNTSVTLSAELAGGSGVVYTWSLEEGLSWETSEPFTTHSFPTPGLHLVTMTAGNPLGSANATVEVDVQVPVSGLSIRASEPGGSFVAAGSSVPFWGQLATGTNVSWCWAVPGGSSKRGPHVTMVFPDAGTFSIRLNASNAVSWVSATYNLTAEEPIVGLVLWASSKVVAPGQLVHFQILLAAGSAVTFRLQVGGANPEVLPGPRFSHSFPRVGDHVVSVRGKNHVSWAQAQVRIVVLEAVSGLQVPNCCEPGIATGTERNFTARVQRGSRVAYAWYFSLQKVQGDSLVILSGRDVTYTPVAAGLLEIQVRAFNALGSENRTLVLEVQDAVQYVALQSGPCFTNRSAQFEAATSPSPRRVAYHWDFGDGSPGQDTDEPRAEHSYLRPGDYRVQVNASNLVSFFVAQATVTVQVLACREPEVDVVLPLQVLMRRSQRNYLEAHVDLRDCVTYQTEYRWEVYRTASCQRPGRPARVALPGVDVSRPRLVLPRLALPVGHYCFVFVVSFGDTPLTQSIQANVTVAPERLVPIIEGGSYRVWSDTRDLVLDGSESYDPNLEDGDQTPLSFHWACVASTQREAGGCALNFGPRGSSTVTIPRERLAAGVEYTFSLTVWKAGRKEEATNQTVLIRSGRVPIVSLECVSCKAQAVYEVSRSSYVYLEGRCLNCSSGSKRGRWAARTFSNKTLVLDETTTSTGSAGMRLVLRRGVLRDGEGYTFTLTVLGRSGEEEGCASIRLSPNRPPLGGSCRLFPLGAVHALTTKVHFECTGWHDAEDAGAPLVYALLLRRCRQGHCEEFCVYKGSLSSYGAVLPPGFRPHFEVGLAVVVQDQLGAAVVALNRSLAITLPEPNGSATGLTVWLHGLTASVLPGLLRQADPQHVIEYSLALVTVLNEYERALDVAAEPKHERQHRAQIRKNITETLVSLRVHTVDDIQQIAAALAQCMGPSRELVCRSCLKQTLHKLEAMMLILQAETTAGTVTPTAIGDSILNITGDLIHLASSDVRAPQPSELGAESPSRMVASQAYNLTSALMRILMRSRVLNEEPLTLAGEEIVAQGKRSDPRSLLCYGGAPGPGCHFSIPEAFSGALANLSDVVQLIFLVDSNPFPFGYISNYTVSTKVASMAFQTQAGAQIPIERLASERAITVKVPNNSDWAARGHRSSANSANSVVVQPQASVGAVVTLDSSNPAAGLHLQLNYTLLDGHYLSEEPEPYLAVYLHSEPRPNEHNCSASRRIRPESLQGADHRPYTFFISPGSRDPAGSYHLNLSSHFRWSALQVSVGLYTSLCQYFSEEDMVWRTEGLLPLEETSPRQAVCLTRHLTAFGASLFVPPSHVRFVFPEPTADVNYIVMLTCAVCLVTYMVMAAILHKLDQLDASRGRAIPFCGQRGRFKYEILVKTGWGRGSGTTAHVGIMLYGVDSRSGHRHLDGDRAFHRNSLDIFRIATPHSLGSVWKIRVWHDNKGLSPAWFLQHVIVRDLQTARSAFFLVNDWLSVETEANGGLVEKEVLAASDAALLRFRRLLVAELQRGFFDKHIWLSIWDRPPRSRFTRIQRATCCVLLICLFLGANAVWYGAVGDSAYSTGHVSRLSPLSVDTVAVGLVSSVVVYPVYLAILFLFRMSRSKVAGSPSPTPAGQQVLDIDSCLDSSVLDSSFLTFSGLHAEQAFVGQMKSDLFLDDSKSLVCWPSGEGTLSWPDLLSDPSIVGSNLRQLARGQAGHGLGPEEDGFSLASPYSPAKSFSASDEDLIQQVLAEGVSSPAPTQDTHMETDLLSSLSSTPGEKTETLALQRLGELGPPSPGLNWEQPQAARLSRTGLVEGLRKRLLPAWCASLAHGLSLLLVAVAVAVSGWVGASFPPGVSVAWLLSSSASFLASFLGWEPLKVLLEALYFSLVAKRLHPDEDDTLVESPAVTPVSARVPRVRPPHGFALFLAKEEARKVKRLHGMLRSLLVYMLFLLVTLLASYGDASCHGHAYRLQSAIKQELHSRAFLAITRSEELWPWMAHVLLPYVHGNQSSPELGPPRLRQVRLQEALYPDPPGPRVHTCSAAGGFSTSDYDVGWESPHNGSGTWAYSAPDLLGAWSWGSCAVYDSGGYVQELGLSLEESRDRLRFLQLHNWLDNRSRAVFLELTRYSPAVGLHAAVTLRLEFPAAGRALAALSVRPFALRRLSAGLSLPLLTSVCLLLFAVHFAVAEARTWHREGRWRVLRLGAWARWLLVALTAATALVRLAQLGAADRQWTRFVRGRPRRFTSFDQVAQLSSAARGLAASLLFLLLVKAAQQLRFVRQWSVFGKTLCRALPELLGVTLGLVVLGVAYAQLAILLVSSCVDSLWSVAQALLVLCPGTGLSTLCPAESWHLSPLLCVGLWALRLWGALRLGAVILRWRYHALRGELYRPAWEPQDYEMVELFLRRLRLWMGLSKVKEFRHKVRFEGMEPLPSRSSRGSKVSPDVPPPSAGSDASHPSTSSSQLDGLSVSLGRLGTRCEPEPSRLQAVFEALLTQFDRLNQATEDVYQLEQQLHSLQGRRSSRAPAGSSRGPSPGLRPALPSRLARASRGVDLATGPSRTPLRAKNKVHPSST

effect of a mutation on the interaction | Variant
disrupting interaction | L884H
